Source: patent publication US20030087827A1 (BOARD OF SUPERVISORS OF LOUISIANA STATE UNIVERSITY AND …, published 2003)
Like-named read-outs stand apart in the source and are kept apart here. Non-standard residues stand in square brackets, D forms with d. No end group written: not given here.

T1: proprotein convertase PC2
T1 sequence (P16519 110-638, species assumed, looked up): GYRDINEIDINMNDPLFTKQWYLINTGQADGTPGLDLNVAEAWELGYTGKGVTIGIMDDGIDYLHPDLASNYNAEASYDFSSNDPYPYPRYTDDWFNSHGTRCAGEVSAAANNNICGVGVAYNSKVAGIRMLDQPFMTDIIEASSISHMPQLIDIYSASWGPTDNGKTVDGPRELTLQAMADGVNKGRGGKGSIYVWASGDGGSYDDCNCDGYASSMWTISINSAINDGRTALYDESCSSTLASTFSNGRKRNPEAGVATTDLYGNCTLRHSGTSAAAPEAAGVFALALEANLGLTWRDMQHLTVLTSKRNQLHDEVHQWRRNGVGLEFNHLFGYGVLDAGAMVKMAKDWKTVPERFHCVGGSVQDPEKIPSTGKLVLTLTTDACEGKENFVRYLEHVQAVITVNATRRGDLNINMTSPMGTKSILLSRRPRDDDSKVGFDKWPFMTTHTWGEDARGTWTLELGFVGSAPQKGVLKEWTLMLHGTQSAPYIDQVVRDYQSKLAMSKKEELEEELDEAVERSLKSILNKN

T2: proprotein convertase PACE4
T2 construct: Partially purified preparation
T2 sequence (P29122 150-969, species assumed, looked up): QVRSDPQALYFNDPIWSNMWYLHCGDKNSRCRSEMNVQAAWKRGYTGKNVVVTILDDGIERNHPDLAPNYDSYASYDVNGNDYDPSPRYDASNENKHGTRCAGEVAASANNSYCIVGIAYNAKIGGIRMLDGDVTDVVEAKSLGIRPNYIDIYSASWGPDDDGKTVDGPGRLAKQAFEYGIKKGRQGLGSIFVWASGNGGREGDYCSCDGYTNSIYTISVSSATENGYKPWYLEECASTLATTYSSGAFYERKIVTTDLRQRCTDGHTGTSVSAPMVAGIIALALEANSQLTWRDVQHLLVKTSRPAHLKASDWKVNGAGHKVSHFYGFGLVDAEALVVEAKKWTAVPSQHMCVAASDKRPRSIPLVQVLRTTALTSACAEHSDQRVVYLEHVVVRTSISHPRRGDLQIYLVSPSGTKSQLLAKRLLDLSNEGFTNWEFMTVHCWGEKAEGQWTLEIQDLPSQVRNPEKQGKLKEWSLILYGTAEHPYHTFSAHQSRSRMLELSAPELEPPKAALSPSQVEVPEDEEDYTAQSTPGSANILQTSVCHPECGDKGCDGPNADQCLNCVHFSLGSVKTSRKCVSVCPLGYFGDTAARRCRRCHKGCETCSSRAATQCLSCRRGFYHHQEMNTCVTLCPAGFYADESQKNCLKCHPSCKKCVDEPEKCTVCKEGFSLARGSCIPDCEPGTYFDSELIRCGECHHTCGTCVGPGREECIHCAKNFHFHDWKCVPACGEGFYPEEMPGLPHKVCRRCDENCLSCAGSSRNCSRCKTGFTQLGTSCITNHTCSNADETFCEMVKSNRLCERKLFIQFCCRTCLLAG

B1: Ac-RRKRRR-NH2 (peptide)
peptide: Ac-RRKRRR-NH2
B2: Ac-HHKRRR-NH2 (peptide)
peptide: Ac-HHKRRR-NH2
notes: L-hexapeptide
B3: Hexa-D-arginine (peptide)
peptide: [dR][dR][dR][dR][dR][dR]
notes: also called D6R; D-hexa-arginine
B4: Ac-MHKRRR-NH2 (peptide)
peptide: Ac-MHKRRR-NH2
notes: L-hexapeptide
B5: Ac-RHKRRR-NH2 (peptide)
peptide: Ac-RHKRRR-NH2
notes: L-hexapeptide
B6: Ac-MRKRRR-NH2 (peptide)
peptide: Ac-MRKRRR-NH2
notes: L-hexapeptide
B7: Ac-HRKRRR-NH2 (peptide)
peptide: Ac-HRKRRR-NH2
notes: L-hexapeptide
B8: Hexa-L-arginine (peptide)
peptide: H-RRRRRR-OH
notes: no terminal modifications; also called hexamer
B9: Ac-KHKRRR-NH2 (peptide)
peptide: Ac-KHKRRR-NH2
notes: L-hexapeptide
B10: Ac-KRKRRR-NH2 (peptide)
peptide: Ac-KRKRRR-NH2
notes: L-hexapeptide
B11: Ac-LLRVKR-NH2 (peptide)
peptide: Ac-LLRVKR-NH2
notes: L-hexapeptide; also called acetylated and amidated LLRVKR
B12: Octa-L-arginine (peptide)
peptide: RRRRRRRR
notes: no terminal modifications; also called octamer
B13: Hepta-L-arginine (peptide)
peptide: RRRRRRR
notes: no terminal modifications; also called heptamer
B14: LLRVKR-NH2 (peptide)
peptide: H-LLRVKR-NH2
notes: L-hexapeptide, free N-terminus
B15: Ac-LLRVKR (peptide)
peptide: Ac-LLRVKR-OH
notes: L-hexapeptide, free C-terminus
B16: LLRVKR (peptide)
peptide: H-LLRVKR-OH
notes: L-hexapeptide without terminal groups; also called unmodified LLRVKR
B17: Nona-L-arginine (peptide)
peptide: RRRRRRRRR
notes: no terminal modifications; also called nonamer
B18: Tetra-L-arginine (peptide)
peptide: H-RRRR-OH
notes: no terminal modifications; also called tetramer
B19: Penta-L-arginine (peptide)
peptide: RRRRR
notes: no terminal modifications; also called pentamer; pentameric polyarginine

Assays:
[1] = biological target: T3, recombinant truncated mouse furin (mouse, UniProt P23188 108-714, N-glycosylated at two of three potential sites); assay: enzyme inhibition, pERTKR-MCA hydrolysis (fluorescence), competitive Ki
T3 construct: extracellular domain; Purified by ion exchange and gel permeation; also called recombinant furin; recombinant mouse furin
Text: (§1) Each value represents the mean ± S.D. determined from three independent experiments.

[2] = biological target: T1, proprotein convertase PC2; assay: as above
Text: as §1

[3] = biological target: T4, proprotein convertase PC1; assay: as above
T4 construct: also called PC3
Text: (§2) Inhibition of Furin, PACE4, PC1 and PC2 by Different L-Polyarginine Peptides.
as §1

[4] = biological target: T3, recombinant truncated mouse furin; assay: as above; remark: listed apart in the source
Text: as §2, §1

[5] = biological target: T2, proprotein convertase PACE4; assay: as above
Text: as §2, §1

[6] = biological target: T4, proprotein convertase PC1; assay: enzyme inhibition, pERTKR-MCA hydrolysis, ratio of Ki
[7] = biological target: T3, recombinant truncated mouse furin; assay: enzyme inhibition, pERTKR-MCA hydrolysis (fluorescence), competitive Ki; remark: listed apart in the source
Text: (§3) The Effect of N-Terminal Acetyl and C-Terminal Amide Groups on Inhibition. We also examined the effect of the terminal acetyl and amide modifications on inhibitory potency.
as §1

[8] = biological target: T1, proprotein convertase PC2; assay: as above; remark: listed apart in the source
Text: as §3, §1

[9] = biological target: T1, proprotein convertase PC2; assay: enzyme inhibition, pERTKR-MCA hydrolysis, ratio of Ki
[10] = biological target: T3, recombinant truncated mouse furin; assay: as above
[11] = biological target: T2, proprotein convertase PACE4; assay: as above

T4 sequence (P63239 111-753): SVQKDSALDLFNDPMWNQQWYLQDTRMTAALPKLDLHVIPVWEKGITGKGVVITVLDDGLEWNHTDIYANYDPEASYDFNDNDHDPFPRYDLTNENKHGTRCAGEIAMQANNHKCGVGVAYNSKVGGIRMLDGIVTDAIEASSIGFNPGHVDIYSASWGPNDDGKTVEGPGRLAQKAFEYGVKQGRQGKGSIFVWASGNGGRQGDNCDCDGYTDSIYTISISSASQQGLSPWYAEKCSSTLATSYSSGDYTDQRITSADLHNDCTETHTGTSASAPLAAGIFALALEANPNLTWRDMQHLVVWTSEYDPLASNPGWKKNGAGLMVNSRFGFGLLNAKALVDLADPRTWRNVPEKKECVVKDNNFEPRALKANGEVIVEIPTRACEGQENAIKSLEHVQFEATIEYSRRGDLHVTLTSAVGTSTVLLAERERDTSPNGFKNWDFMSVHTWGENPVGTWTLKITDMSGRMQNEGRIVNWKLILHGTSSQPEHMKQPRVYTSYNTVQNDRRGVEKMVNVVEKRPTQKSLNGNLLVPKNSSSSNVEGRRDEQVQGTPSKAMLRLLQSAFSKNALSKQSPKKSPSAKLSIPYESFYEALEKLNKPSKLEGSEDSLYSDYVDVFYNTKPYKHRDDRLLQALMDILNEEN
T3 sequence (P23188 108-714): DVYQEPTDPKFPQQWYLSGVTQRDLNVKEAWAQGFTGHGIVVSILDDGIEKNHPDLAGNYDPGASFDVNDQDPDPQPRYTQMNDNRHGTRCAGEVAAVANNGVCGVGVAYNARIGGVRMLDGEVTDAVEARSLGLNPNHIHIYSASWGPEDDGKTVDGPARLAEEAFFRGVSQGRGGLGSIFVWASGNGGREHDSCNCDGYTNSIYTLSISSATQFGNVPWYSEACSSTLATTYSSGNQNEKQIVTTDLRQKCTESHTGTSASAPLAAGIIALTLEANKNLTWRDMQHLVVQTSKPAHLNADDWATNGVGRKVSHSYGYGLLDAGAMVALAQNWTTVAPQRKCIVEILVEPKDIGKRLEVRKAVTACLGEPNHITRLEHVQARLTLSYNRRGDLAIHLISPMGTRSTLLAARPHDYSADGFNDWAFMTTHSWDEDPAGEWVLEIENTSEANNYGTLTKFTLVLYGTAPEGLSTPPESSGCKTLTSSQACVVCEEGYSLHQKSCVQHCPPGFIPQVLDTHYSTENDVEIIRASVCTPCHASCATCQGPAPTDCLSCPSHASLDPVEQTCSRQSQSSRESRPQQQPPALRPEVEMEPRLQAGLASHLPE

Binder | Ki [1] | Ki [2] | Ki [3] | Ki [4] | Ki [5] | further results
B1 | 1.3 µM | 461 µM |  |  |  | 
B2 | 13.2 µM | 235 µM |  |  |  | 
B3 |  |  | 13 µM | 0.106 µM | 0.58 µM | fold increase in Ki against hexa-L-arginine [6]: 3 fold
B4 | 10.3 µM | 216 µM |  |  |  | 
B5 | 3.4 µM | 152 µM |  |  |  | 
B6 | 2.3 µM |  |  |  |  | 
B7 | 2.1 µM | 309 µM |  |  |  | 
B8 |  |  | 3.9 µM | 0.114 µM | 0.52 µM | 
B9 | 5.2 µM | 280 µM |  |  |  | 
B10 | 1.6 µM | 391 µM |  |  |  | 
B11 |  |  |  |  |  | Ki [7]: 3.4 µM; Ki [8]: 1 µM; fold smaller Ki than the unmodified peptide LLRVKR [9]: ~4 fold
B12 |  |  | 5.1 µM | 0.061 µM | 0.15 µM | 
B13 |  |  | 5.2 µM | 0.068 µM | 0.24 µM | 
B14 |  |  |  |  |  | Ki [7]: 0.8 µM; Ki [8]: 2.3 µM
B15 |  |  |  |  |  | Ki [7]: 3.5 µM; Ki [8]: 1.3 µM
B16 |  |  |  |  |  | Ki [7]: 0.42 µM; Ki [8]: 3.7 µM; fold increase in inhibitory potency against the amidated and acetylated peptide Ac-LLRVKR-NH2 [10]: 8 fold
B17 |  |  | 12 µM | 0.042 µM | 0.11 µM | 
B18 |  |  | > 200 µM | 6.4 µM | > 200 µM | fold increase in Ki against the pentamer (penta-L-arginine) [10]: ~5 fold
B19 |  |  | 14 µM | 0.99 µM | 0.98 µM | fold increase in Ki against the hexamer (hexa-L-arginine) [10]: ~10 fold; ratio of Ki to that of the hexamer (SEQ ID NO 14) [11]: ~2 fold
